B1: HDV Ribozyme (parent)
chain: GGCCGGCAUGGUCCCAGCCUCCUCGCUGGCGCCGGCUGGGCAACAUUCCGAGGGGACCGUCCCCUCGGUAAUGGCGAAUGGGACCCA

Variants of: B1
Assay: self-cleavage, relative activity (ratio to wild type); higher = more cleavage; co-transcriptional

| Variant | self-cleavage |
| --- | --- |
| GGCCGGCAUGGUCCCAGCCUCCUCGCUGGCGCCAGCUGGGCAACAUUCAGAGGGGACCGUCCCCUCGGUAAUGGCGAAUGGGACCCA [G34A C49A] | 0.0852 |
| GGCCGGCAUGGUCCCAGCCUCCUCGCUGGCGCCAGCUUGGCAACAUUCCGAGGGGACCGUCCCCUCGGUAAUGGCGAAUGGGACCCA [G34A G38U] | 0.138 |
| GGCCGGCAUGGUCCCAGCCUCCUCGCUGGCGCCAGCUGGGCAACAUUCCGAGGGGACCGUCCCCUCGGUAAUGGCGAAUGGGACCUA [G34A C86U] | 0.176 |
| GGCCGGCAUGGUCCCAGCCUCCUCGCUGGCGCCAGCUGGGCAACAUUCCGAGGGGACCGUCCCCUCGGUAAUGGCGAAUGGGACCGA [G34A C86G] | 0.121 |
| GGCCGGCAUGGUCCCAGCCUCCUCGCUGGCGCCAGCUGGGCAACAUUCCGAGGGGACCGUCCCCUCGGUAAUCGCGAAUGGGACCCA [G34A G73C] | 0.147 |
| GGCCGGCAUGGUCCCAGCCUCCUCGCUGGCGCCAGCUGGGCAACGUUCCGAGGGGACCGUCCCCUCGGUAAUGGCGAAUGGGACCCA [G34A A45G] | 0.199 |
| GGCCGGCAUGGUCCCAGCCUCCUCGCUGGCGCCAGCUGGGCAACCUUCCGAGGGGACCGUCCCCUCGGUAAUGGCGAAUGGGACCCA [G34A A45C] | 0.299 |
| GGCCGGCAUGGUCCCAGCCUCCUCGCUGGCGCUGGCUGGGCAACAUUCCGAGGGGACCGUCCCCUCGGUAAUGGCGAAGGGGACCCA [C33U U79G] | 0.429 |
| GGCCGGCAUGGUCCCAGCCUCCUCGCUGGCGCCAGCUGGGCAACAUUCCGAGGGGACCGUCCCCUCGGUAAUGGCGCAUGGGACCCA [G34A A77C] | 0.095 |
| GGCCGGCAUGGUCCCAGCCUCCUCGCUGGCGCCAGCUGGGCAACAUUCCGAGGGGACCGUCCCCUCGGUAAUGGCGGAUGGGACCCA [G34A A77G] | 0.0639 |
| GGCCGGCAUGGUCCCAGCCUCCUCGCUGGCGCCAGCUGGGCUACAUUCCGAGGGGACCGUCCCCUCGGUAAUGGCGAAUGGGACCCA [G34A A42U] | 0.0326 |
| GGCCGGCAUGGUCCCAGCCUCCUCGCUGGCGCCAGCUGGGCGACAUUCCGAGGGGACCGUCCCCUCGGUAAUGGCGAAUGGGACCCA [G34A A42G] | 0.178 |
| GGCCGGCAUGGUCCCAGCCUCCUCGCUGGCGCCAGCUGGGCCACAUUCCGAGGGGACCGUCCCCUCGGUAAUGGCGAAUGGGACCCA [G34A A42C] | 0.0354 |
| GGCCGGCAUGGUCCCAGCCUCCUCGCUGGCGCCAGCUGGGCAUCAUUCCGAGGGGACCGUCCCCUCGGUAAUGGCGAAUGGGACCCA [G34A A43U] | 0 |
| GGCCGGCAUGGUCCCAGCCUCCUCGCUGGCGCCAGCUGGGCACCAUUCCGAGGGGACCGUCCCCUCGGUAAUGGCGAAUGGGACCCA [G34A A43C] | 0.119 |
| GGCCGGCAUGGUCCCAGCCUCCUCGCUGGCGCCAGCUGGGCAACAUUCCGAGGGGACCGUCCCCUCGAUAAUGGCGAAUGGGACCCA [G34A G68A] | 0.144 |

| Variant | self-cleavage |
| --- | --- |
| GGCCGGCAUGGUCCCAGCCUCCUCGCUGGCGCCAGCUGGGCAACAUUCCGAGGGGACCGUCCCCUCGCUAAUGGCGAAUGGGACCCA [G34A G68C] | 0.0978 |
| GGCCGGCAUGGUCCCAGCCUCCUCGCUGGCGCCAGCUGGGCAACAUUCCGAGGGGACCGUCCCCUCGUUAAUGGCGAAUGGGACCCA [G34A G68U] | 0.171 |
| GGCCGGCAUGGUCCCAGCCUCCUCGCUGGCGCCAGCUGGGCAACAUUCCGAGCGGACCGUCCCCUCGGUAAUGGCGAAUGGGACCCA [G34A G53C] | 0.215 |
| GGCCGGCAUGGUCCCAGCCUCCUCGCUGGCGCCAGCUGGGCAACAUUCCGAGUGGACCGUCCCCUCGGUAAUGGCGAAUGGGACCCA [G34A G53U] | 0.17 |
| GGCCGGCAUGGUCCCAGCCUCCUCGCUGGCGCCAGCUGGGCAACAUUCCGAGGGGAGCGUCCCCUCGGUAAUGGCGAAUGGGACCCA [G34A C57G] | 0.0997 |
| GGCCGGCAUGGUCCCAGCCUCCUCGCUGGCGCCAGCUGGGCAACAUUCCGAGGGGAACGUCCCCUCGGUAAUGGCGAAUGGGACCCA [G34A C57A] | 0.13 |
| GGCCGGCAUGGUCCCAGCCUCCUCGCUGGCGCCAGCUGGGCAACAUUCCGAGGGGACCGUCCCCUCGGUAAUGGCUAAUGGGACCCA [G34A G76U] | 0.269 |
| GGCCGGCAUGGUCCCAGCCUCCUCGCUGGCGCCAGCUGGGCAACAUUCCGAGGGGACCGUCCCCUCGGUAAUGGCAAAUGGGACCCA [G34A G76A] | 0.257 |
| GGCCGGCAUGGUCCCAGCCUCCUCGCUGGCGCCAGCUGGGCAACAUUCCGAGGGGACCGUCCUCUCGGUAAUGGCGAAUGGGACCCA [G34A C63U] | 0.0656 |
| GGCCGGCAUGGUCCCAGCCUCCUCGCUGGCGCCAGCUGGGCAACAUUCCGAGGGGACCGUCCCCUCGGUAAUGGCGAAUGGGUCCCA [G34A A83U] | 0.0831 |
| GGCCGGCAUGGUCCCAGCCUCCUCGCUGGCGCCAGCUGGCCAACAUUCCGAGGGGACCGUCCCCUCGGUAAUGGCGAAUGGGACCCA [G34A G40C] | 0.0482 |
| GGCCGGCAUGGUCCCAGCCUCCUCGCUGGCGCCAGCUGGACAACAUUCCGAGGGGACCGUCCCCUCGGUAAUGGCGAAUGGGACCCA [G34A G40A] | 0.181 |
| GGCCGGCAUGGUCCCAGCCUCCUCGCUGGCGCCAGCUGGGCAACAUUCCGAGGGGACCGUCCCCUCGGUAAUGGCGAAUGGGACCCU [G34A A87U] | 0.196 |
| GGCCGGCAUGGUCCCAGCCUCCUCGCUGGCGCCAGCUGGGCAACAUUCCGAGGGGACCGUCCCGUCGGUAAUGGCGAAUGGGACCCA [G34A C64G] | 0.0963 |
| GGCCGGCAUGGUCCCAGCCUCCUCGCUGGCGCCAGCUGGGCAACAUUCCGAGGGGACCGUCCCAUCGGUAAUGGCGAAUGGGACCCA [G34A C64A] | 0.128 |
| GGCCGGCAUGGUCCCAGCCUCCUCGCUGGCGCCAGCUGGGCAACAUUCCGAGGGGACCGUCCCUUCGGUAAUGGCGAAUGGGACCCA [G34A C64U] | 0.133 |
